Molecular target: alpha-thrombin (UniProt P00734;P00734 328-363;364-622)
Assay: SPR imaging

B1: Da thrombin aptamer (ssDNA)
DNA: AGTCCGTGGTAGGGCAGGTTGGGGTGACTTTTTTTTTTTTTTTT
modifications: 3'-NH2, surface-attached to pGlu-MUAM on gold
B1: binds.
